The supplement of paper PMC10724198
± gives the standard deviation of the averaged measurements.

Each sequence was assayed on Saccharomyces cerevisiae (assay: protein stability index of tFT-peptide fusion (C-terminal peptide) (PSI (0-1 scale)); higher = more stable (slower turnover)). Details: genetic background: wild type; temperature: 30 C.
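Further: PSI is a weighted mean of sequencing reads over stability bins, variants kept only with over 10 reads, mCherry proximal and sfGFP distal, peptide attached via GGGS linker.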

In order of falling protein stability index:
1. LRSPPPVSHRLP  0.822 ± 0.048
2. LREETKREDDKQ  0.814 ± 0.061
3. LRRGRLVSSAAF  0.802 ± 0.077
4. LRLATTLFPLSF  0.797 ± 0.12
5. LSRPTSWLLSFL  0.777 ± 0.12
6. LSLLLLPPFPHF  0.758 ± 0.026
7. LSGVYPQACSRL  0.734 ± 0.014
8. LRSPHPLPPPPP  0.732 ± 0.062
9. LSPPLSLPPASP  0.731 ± 0.032
10. LTLPPACFPRLR  0.723 ± 0.059
11. LSPGSSPAVSGF  0.722 ± 0.13
12. LTGTVQPKLILP  0.722 ± 0.051
13. LRSGGVPVFWGS  0.721 ± 0.043
14. LRASVFPVLDMC  0.718 ± 0.075
15. LRRAPPSPPPPP  0.716 ± 0.054
16. LSTPWADPTSSP  0.716 ± 0.096
17. LPSRSLPSPGPP  0.714 ± 0.027
18. LSSPCAFTCPLL  0.7139 ± 0.0062
19. LTWRVDECPPYS  0.712 ± 0.038
20. LSTSINTIIPGP  0.71 ± 0.14
21. LRHRAYPKLFPA  0.708 ± 0.011
22. LSHMRVSLTRPR  0.707 ± 0.029
23. LSPPPSLSSRPP  0.706 ± 0.064
24. LSALPPRPFSYR  0.7053 ± 0.004
25. LSAPPPPPPPSP  0.7026 ± 0.003
26. LSLALGSPGALP  0.703 ± 0.07
27. LSVFCALPFVAL  0.7026 ± 0.0048
28. LSIPPSLLSLPL  0.702 ± 0.025
29. LRRTKWRTLQAP  0.701 ± 0.048
30. LRPPLRPRPIPL  0.6983 ± 0.0036
31. LSQASPGSPRPA  0.698 ± 0.011
32. LTLGSSGTSFLS  0.698 ± 0.016
33. LSHSHLYLFFHH  0.6957 ± 0.0027
34. LVGFGGGGHGVV  0.696 ± 0.019
35. LSLSPLHRSSFR  0.6954 ± 0.0056
36. LSETTAYLQQAS  0.693 ± 0.1
37. LSVSLCWRHFFS  0.693 ± 0.012
38. LRMHFPPHPSSL  0.691 ± 0.067
39. LSFDAVSVGFGG  0.691 ± 0.064
40. LRDTAPEPGPAP  0.6895 ± 0.0014
41. LRPPPPRGPSPP  0.689 ± 0.023
42. LVCKRQGQANFI  0.689 ± 0.06
43. LSLLPPPPPPSP  0.688 ± 0.011
44. LSLCVVFRAPSR  0.686 ± 0.042
45. LSAEAGAGLRAM  0.684 ± 0.034
46. LQSSSCLLYPSS  0.681 ± 0.026
47. LRFDGKASHSST  0.6813 ± 0.0014
48. LSPLSHPPSPAP  0.6806 ± 0.0014
49. LVFGGRMRVYRP  0.678 ± 0.016
50. LSPRSSGCPRWF  0.677 ± 0.019
51. LSSPPAPPPPPR  0.677 ± 0.13
52. LTCRASNGIQAA  0.677 ± 0.021
53. LSPTQSTLPTPP  0.673 ± 0.01
54. LRFRGKSQNDYD  0.67 ± 0.058
55. LSGTGTIIKARA  0.67 ± 0.14
56. LSSARPMNLPPG  0.67 ± 0.057
57. LRGGWVESCGGW  0.669 ± 0.027
58. LSGSTQLLYFFQ  0.6651 ± 0.0028
59. LTGCFRSSRRCC  0.665 ± 0.02
60. LRARMACPLIIS  0.663 ± 0.025
61. LRAHHHSAKFQY  0.6608 ± 0.0056
62. LRCSVKQNLGIV  0.655 ± 0.045
63. LSPGTPVSAPRL  0.655 ± 0.029
64. LSPLSVPAPPSP  0.655 ± 0.027
65. LRYENSQRKELR  0.653 ± 0.055
66. LVCPFFLSSRIF  0.653 ± 0.025
67. LRENKGPAPPLL  0.651 ± 0.0087
68. LPVPPPHPPCPL  0.6497 ± 0.0036
69. LSPPPRPPLAPP  0.65 ± 0.039
70. LSLRGRLNYRMM  0.647 ± 0.011
71. LTVPCSSSFPLL  0.647 ± 0.095
72. LSPPRSPPSRPP  0.645 ± 0.029
73. LSGSRAFVTVVL  0.644 ± 0.034
74. LPSSSPHPADPS  0.643 ± 0.08
75. LVDAGGSTRGKP  0.643 ± 0.0069
76. LTVIRSRDVIGP  0.641 ± 0.055
77. LRIILPPLAQPE  0.639 ± 0.019
78. LRPRPPTLPPSR  0.638 ± 0.04
79. LSPQKRDSAVTR  0.638 ± 0.095
80. LSVFAFRGVFRF  0.638 ± 0.045
81. LQPRLLSIVPYN  0.635 ± 0.03
82. LRFTYSFIPPSV  0.631 ± 0.00064
83. LSSGLLIFPIVF  0.631 ± 0.031
84. LSRLLVYSRGIV  0.629 ± 0.093
85. LPVLGSFRLIWL  0.626 ± 0.016
86. LRKNRKHINKKI  0.626 ± 0.034
87. LTNLGSDRCRLQ  0.623 ± 0.0074
88. LPVCVRLSLCDV  0.6144 ± 0.004
89. LRLECESIKRYT  0.61 ± 0.055
90. LVFTDDGGVRSL  0.609 ± 0.03
91. LSSHLHCVTLFT  0.606 ± 0.059
92. LVFGLGSVYLWG  0.602 ± 0.059
93. LRSRVGYVMPVR  0.5988 ± 0.0057
94. LTLQIWNLVSHL  0.599 ± 0.071
95. LRLPAPPLASAC  0.596 ± 0.006
96. LTSWYGNKLVAV  0.588 ± 0.029
97. LSATWLKAIVYW  0.578 ± 0.012
98. LRVKVPLLGLWA  0.557 ± 0.025
99. LRNGSFFLVFSC  0.531 ± 0.016
100. LPVLCSRVFVSS  0.517 ± 0.023
101. LTLGAIRLLLRC  0.496 ± 0.037
